Experimental data taken from publication PMC7082060, “Structure of mouse coronavirus spike protein complexed with receptor reveals mechanism for viral entry” (PLoS Pathogens, 2020).

Tests used:
[1] = biological target: MHV spike ectodomain (S-e), strain A59 (mouse hepatitis coronavirus (MHV), strain A59) (UniProt P11224); assay: cryo-EM structure
[2] = biological target: MHV spike ectodomain (S-e), strain A59 (mouse hepatitis coronavirus (MHV), strain A59) (UniProt P11224)
[3] = biological target: the molecule itself; assay: cryo-EM structure

Sequence of Mouse CEACAM1a ectodomain (D1-D4), C-terminal His6 tag (receptor) (P31809 1-202): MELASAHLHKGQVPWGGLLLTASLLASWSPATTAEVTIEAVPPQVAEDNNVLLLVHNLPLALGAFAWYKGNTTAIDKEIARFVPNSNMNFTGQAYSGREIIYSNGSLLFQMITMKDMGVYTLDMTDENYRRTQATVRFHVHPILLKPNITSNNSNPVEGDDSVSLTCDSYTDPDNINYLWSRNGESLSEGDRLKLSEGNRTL

Row | Molecule | stoichiometry N (CEACAM1a molecules per S-e trimer) [1] | negative-stain EM: share of S-e molecules in the post-fusion conformation after high concentration of trypsin with CEACAM1a (11.75% without CEACAM1a) [2] | stoichiometry N [3]
1 | Mouse CEACAM1a ectodomain (D1-D4), C-terminal His6 tag (receptor) | 3 | 50.9% | 
2 | MHV spike ectodomain (S-e), strain A59 (domain or fragment, also called MHV S-e; recombinant MHV S-e; not shown: GCN4 trimerization tag, C-terminal, kept; His6, C-terminal, kept) YIGDFRCIQLVNSNGANVSAPSISTETVEVSQGLGTYYVLDRVYLNATLLLTGYYPVDGSKFRNLALRGTNSVSLSWFQPPYLNQFNDGIFAKVQNLKTSTPSGATAYFPTIVIGSLFGYTSYTVVIEPYNGVIMASVCQYTICQLPYTDCKPNTNGNKLIGFWHTDVKPPICVLKRNFTLNVNADAFYFHFYQHGGTFYAYYADKPSATTFLFSVYIGDILTQYYVLPFICNPTAGSTFAPRYWVTPLVKRQYLFNFNQKGVITSAVDCASSYTSEIKCKTQSMLPSTGVYELSGYTVQPVGVVYRRVANLPACNIEEWLTARSVPSPLNWERKTFQNCNFNLSSLLRYVQAESLFCNNIDASKVYGRCFGSISVDKFAVPRSRQVDLQLGNSGFLQTANYKIDTAATSCQLHYTLPKNNVTINNHNPSSWNRRYGFNDAGVFGKNQHDVVYAQQCFTVRSSYCPCAQPDIVSPCTTQTKPKSAFVNVGDHCEGLGVLEDNCGNADPHKGCICANNSFIGWSHDTCLVNDRCQIFANILLNGINSGTTCSTDLQLPNTEVVTGICVKYDLYGITGQGVFKEVKADYYNSWQTLLYDVNGNLNGFRDLTTNKTYTIRSCYSGRVSAAFHKDAPEPALLYRNINCSYVFSNNISREENPLNYFDSYLGCVVNADNRTDEALPNCDLRMGAGLCVDYSKSRRAHRSVSTGYRLTTFEPYTPMLVNDSVQSVDGLYEMQIPTNFTIGHHEEFIQTRSPKVTIDCAAFVCGDNTACRQQLVEYGSFCVNVNAILNEVNNLLDNMQLQVASALMQGVTISSRLPDGISGPIDDINFSPLLGCIGSTCAEDGNGPSAIRGRSAIEDLLFDKVKLSDVGFVEAYNNCTGGQEVRDLLCVQSFNGIKVLPPVLSESQISGYTTGATAAAMFPPWSAAAGVPFSLSVQYRINGLGVTMNVLSENQKMIASAFNNALGAIQDGFDATNSALGKIQSVVNANAEALNNLLNQLSNRFGAISASLQEILTRLEAVEAKAQIDRLINGRLTALNAYISKQLSDSTLIKVSAAQAIEKVNECVKSQTTRINFCGNGNHILSLVQNAPYGLYFIHFSYVPISFTTANVSPGLCISGDRGLAPKAGYFVQDDGEWKFTGSSYYYPEPITDKNSVIMSSCAVNYTKAPEVFLNTSIPNPPDFKEELDKWFKNQTSIAPDLSLDFEKLNVT |  |  | 3
